Test results taken from article doi:10.1101/2021.11.20.466133.

Tests used:
[1] = target: MsDisA_(1-316) (domains 1 and 2) (Mycobacterium smegmatis mc2155); assay: SEC-MALS
[2] = target: MsDisA_(132-372) (domains 2 and 3) (Mycobacterium smegmatis mc2155); assay: SEC-MALS
[3] = target: MsDisA_(1-158) (only N-terminal domain-1) (Mycobacterium smegmatis mc2155); assay: SEC-MALS
[4] = target: Mycobacterium smegmatis DNA integrity scanning protein (MsDisA), c-di-AMP synthase (Mycobacterium smegmatis mc2155); assay: SEC-MALS
[5] = target: Mycobacterium smegmatis DNA integrity scanning protein (MsDisA), c-di-AMP synthase (Mycobacterium smegmatis mc2155); assay: cryo-EM structure
[6] = target: Mycobacterium smegmatis DNA integrity scanning protein (MsDisA), c-di-AMP synthase (Mycobacterium smegmatis mc2155); assay: negative-stain TEM

MsDisA_(1-316) (domains 1 and 2) (domain or fragment)
stoichiometry N [1]: 8

MsDisA_(132-372) (domains 2 and 3) (domain or fragment)
stoichiometry N [2]: 2

MsDisA_(1-158) (only N-terminal domain-1) (domain or fragment)
stoichiometry N [3]: 8

Mycobacterium smegmatis DNA integrity scanning protein (MsDisA), c-di-AMP synthase (enzyme)
stoichiometry N [4]: 8 | stoichiometry N [5]: 8 | stoichiometry N [6]: 8
